Data: paper PMC3751641, “Mena/VASP and αII-Spectrin complexes regulate cytoplasmic actin networks in cardiomyocytes and protect from conduction abnormalities and dilated cardiomyopathy” (Cell Communication and Signaling : CCS, 2013)

Tests used:
[1] = molecular target: T1, GST-α9A (α9 repeat of the αII-Spectrin splice variant SH3i, with the alternatively spliced 20 amino acids) (mouse, UniProt P16546 893-1088); assay: pull-down; 5 μg GST or equimolar GST-fusion proteins immobilised on glutathione sepharose, incubated with cleared adult mouse heart lysate (40 mM Hepes-NaOH pH 7.4, 75 mM NaCl, 1% NP40, protease inhibitors); blot with anti-Mena; conditions: one partner purified
T1 construct: mouse αII-Spectrin, splice variant SH3i (protein ID AAI50942), amino acids Q893-E1088: the α9 repeat with the SH3 domain and the 20-residue insert T1053-L1072; numbers count on: SH3i, AAI50942; cDNA subcloned into the pGEX-6P2 vector

[2] = molecular target: T2, SH3i, αII-Spectrin splice variant, endogenous in adult mouse heart (mouse (endogenous in mouse heart), UniProt P16546 1-2472); assay: co-IP; adult mouse heart lysate incubated with 5 μg purified anti-Mena, anti-αII-Spectrin or anti-SH3i antibodies, then protein A-sepharose; washed in lysis buffer; Western blot; GST-specific antibodies as control; conditions: partners not purified
T2 construct: source: endogenous, adult mouse heart lysate

B1: Mena (mammalian Enabled) (natural protein, mouse (endogenous in mouse heart), UniProt Q03173-3 1-541, looked up)
chain: MSEQSICQARAAVMVYDDANKKWVPAGGSTGFSRVHIYHHTGNNTFRVVGRKIQDHQVVINCAIPKGLKYNQATQTFHQWRDARQVYGLNFGSKEDANVFASAMMHALEVLNSQEAGPTLPRQNSQLPAQVQNGPSQEELEIQRRQLQEQQRQKELERERMERERLERERLERERLERERLEQEQLERQRQEREHVERLERERLERLERERQERERERLEQLEREQVEWERERRMSNAAAPASAETPLNPELGDSSASEPGLQAASQPAESPTPQGLVLGPPAPPPPPPLPSGPAYASALPPPPGPPPPPPLPSTGPPPPPPPPPPLPNQAPPPPPPPPAPPLPASGIFSGSTSEDNRPLTGLAAAIAGAKLRKVSRVEDGSFPGGGNTGSVSLASSKADAGRGNGPLPLGGSGLMEEMSALLARRRRIAEKGSTIETEQKEDRNEDAEPITAKAPSTSTPEPTRKPWERTNTMNGSKSPVISRPKSTPSSQPSANGVQTEGLDYDRLKQDILDEMRKELAKLKEELIDAIRQELSKSNTA
notes: mouse Mena, endogenous; two isoforms exist in the mouse heart, the general one (~80 kDa, 541 aa) and the neuronal splice variant (~140 kDa); source: endogenous, adult mouse heart lysate
[1]
  fold more Mena precipitated than by α9 or SH3: ≥ 10 fold
[2]
  fold more Mena precipitated than by general αII-Spectrin-specific antibodies: 8 fold
